According to publication PMC7817830, “SUMOylation disassembles the tetrameric pyruvate kinase M2 to block myeloid differentiation of leukemia cells” (Cell Death & Disease, 2021):

Target: the molecule itself
Experiment: SEC; cell lysate of 32D BCR-ABL cells on Superdex 200 10/300GL, 50 mM phosphate, 0.15 M NaCl, pH 7.2; fractions by UV absorbance and western blot

B1: Flag-tagged K270R mutant PKM2 expressed in 32D BCR-ABL cells (enzyme)
chain: not shown
notes: pyruvate kinase, M2 isoform (PKM2); also called PKM2^K270R; KR; source: 32D BCR-ABL cells, ectopically expressed, in lysate
For B1, the “stoichiometry N” value was 4.
